Earlier results in paper PMC12524998.

Biological target: dysferlin (Homo sapiens) (UniProt O75923)
Assay: SPR

Chain of UniProt O75923 (O75923 whole entry): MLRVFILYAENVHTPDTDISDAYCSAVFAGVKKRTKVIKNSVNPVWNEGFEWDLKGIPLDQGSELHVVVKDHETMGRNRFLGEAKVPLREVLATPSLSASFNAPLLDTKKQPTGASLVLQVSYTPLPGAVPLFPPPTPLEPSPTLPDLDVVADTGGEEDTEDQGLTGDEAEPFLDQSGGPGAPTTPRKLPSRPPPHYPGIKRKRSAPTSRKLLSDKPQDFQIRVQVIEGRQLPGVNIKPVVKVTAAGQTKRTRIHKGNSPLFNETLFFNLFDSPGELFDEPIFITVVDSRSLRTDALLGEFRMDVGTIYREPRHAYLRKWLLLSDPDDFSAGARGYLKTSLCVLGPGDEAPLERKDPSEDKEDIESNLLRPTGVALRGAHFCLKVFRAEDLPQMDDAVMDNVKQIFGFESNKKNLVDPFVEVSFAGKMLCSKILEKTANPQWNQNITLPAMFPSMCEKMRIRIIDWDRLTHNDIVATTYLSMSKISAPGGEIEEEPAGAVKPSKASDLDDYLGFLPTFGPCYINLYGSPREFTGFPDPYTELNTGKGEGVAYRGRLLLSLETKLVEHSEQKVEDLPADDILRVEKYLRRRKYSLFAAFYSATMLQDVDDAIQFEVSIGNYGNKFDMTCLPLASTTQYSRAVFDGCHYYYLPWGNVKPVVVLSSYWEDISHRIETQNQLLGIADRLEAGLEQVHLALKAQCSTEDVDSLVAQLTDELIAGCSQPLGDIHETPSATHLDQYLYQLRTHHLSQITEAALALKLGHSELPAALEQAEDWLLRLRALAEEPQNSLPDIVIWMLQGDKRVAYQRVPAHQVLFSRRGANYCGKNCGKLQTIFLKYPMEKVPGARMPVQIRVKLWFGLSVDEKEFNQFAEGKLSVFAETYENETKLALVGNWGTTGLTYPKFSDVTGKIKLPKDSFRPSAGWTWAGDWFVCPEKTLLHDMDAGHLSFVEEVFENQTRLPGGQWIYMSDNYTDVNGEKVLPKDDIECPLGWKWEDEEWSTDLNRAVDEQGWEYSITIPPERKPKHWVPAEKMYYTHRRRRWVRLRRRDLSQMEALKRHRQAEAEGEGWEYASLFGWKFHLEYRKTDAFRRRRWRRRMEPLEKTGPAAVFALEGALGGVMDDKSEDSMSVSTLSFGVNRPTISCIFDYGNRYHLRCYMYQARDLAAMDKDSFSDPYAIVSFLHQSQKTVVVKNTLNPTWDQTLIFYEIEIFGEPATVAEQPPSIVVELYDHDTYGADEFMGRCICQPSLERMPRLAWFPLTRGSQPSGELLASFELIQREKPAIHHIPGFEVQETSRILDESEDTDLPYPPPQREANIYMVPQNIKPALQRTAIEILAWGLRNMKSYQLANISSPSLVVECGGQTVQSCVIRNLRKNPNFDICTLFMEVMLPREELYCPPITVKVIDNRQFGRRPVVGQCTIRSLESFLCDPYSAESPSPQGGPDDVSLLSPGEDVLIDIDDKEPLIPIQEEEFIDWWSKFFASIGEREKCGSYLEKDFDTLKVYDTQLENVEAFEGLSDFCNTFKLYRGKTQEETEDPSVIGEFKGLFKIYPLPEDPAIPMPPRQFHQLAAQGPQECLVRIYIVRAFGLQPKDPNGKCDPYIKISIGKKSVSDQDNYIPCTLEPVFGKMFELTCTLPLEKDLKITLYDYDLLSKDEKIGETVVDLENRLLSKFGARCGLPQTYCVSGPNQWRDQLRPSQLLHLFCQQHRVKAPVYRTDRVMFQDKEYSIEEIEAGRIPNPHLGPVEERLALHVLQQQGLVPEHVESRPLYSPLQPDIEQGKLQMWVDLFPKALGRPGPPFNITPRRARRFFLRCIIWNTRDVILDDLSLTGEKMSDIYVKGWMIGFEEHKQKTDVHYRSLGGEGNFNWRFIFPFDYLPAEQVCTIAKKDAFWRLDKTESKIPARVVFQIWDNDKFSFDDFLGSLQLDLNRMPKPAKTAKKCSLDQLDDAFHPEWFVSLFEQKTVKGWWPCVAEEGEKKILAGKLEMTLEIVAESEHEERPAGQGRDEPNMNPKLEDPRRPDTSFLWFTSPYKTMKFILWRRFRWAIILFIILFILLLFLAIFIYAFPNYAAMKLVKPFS

Kd: 24 nM
Substance: FKBP8 (from UniProt Q14318)
